According to patent publication US20190060239A1, “Technology for the Preparation of Microparticles” (Ansun Biopharma, Inc., priority 2007, published 2019):

How the values were obtained:
[1] = Microsphere quality score by light microscopy (scoring system of Table 13); assay type: physicochemical
Procedure: For each of the compounds listed in A-D above, and for DAS181, cocktail solutions containing 2 mg/ml of compound dissolved in an aqueous solvent and various counterions, antisolvents and pH, as listed below, were prepared in a 96-well microtiter plate (0.1 ml cocktail/well) at room temperature. Control solutions contained either solvent or antisolvent alone, with or without the counterion. Cocktails were cooled by placing in a freezer. The chilled plates were transferred onto pre-chilled (−45° C.) shelves of a Millrock Lab Series Lyophilizer, and the vacuum was applied. The frozen cocktail solutions were allowed to lyophilize for 16 hours.
The lyophilized powders from the bottoms of the wells were transferred onto glass slides and analyzed by light microscopy for appearance. The quality of the product microspheres was scored based on the uniformity of the microspheres, the absence of undesirable non-microsphere particles (glass-like crystalline forms), and the absence of aggregates.
Arginine was used as counterion and isopropanol was used as antisolvent. Concentrations of each of the cocktail components—the compound, the counterion and the antisolvent—were varied as shown below in Table 15, and the effect on microsphere quality assessed.
Experiments were performed to evaluate the effect of antisolvent and counterion concentration variation on the formation of microspheres. The peptides leuprolide and somatostatin, and the antibiotics vancomycin and tobramycin, were tested under a variety of conditions for forming microspheres. Samples were analyzed in 96-well plates as described in the previous Examples.
The experiments were performed using PGI2 and an analog of PGI2, Ciprostene, at a concentration of 2 mg/ml. Cocktail solutions were mixed at room temperature, then cooled by placing in a freezer. The chilled plates were transferred onto pre-chilled (−45° C.) shelves of a Millrock Lab Series Lyophilizer, and the vacuum was applied. The frozen cocktail solutions were allowed to lyophilize for 16 hours.
Because the resulting prostaglandin microspheres are hygroscopic, upon microsphere initiation, the humidity was maintained at low levels during the experiments, using a nitrogen gas tank attached to the backfill system on the lyophilizer. Each of the reaction tubes was flushed with N2. In addition, the backfill valve on the lyophilizer was left open to continually flush a low humidity atmosphere over the samples. The microscope used to visualize the resulting microspheres was contained within a plastic bag that was continually purged with dry N2. Sample tubes were placed under the bag to equilibrate for approximately 30 seconds, before opening and spreading onto the glass slide.
The compound/counterion/antisolvent conditions were as follows:
Experiments were performed with 200 μl of each of the above cocktail solutions in a 2 ml lyophilization bottle (first flash freeze condition), and 25 μl of each of the above cocktail solutions in a PCR tube (second flash freeze condition). The samples in the lyophilization bottles took approximately 15 seconds to freeze. The samples in the PCR tubes took approximately 3 seconds or less to freeze.
The cocktails in the 96-well plates were cooled by placing in a freezer. The chilled plates were transferred onto pre-chilled (−45° C.) shelves of a Millrock Lab Series Lyophilizer, and a vacuum was applied. The frozen cocktail solutions were allowed to lyophilize for 16 hours.
The lyophilized powders from the bottoms of the wells were transferred onto glass slides and analyzed by light microscopy for appearance.

[2] = Microsphere formation, size and appearance by light microscopy; assay type: physicochemical
[3] = Sialidase activity with fluorogenic substrate 4-MU-NANA; assay type: biochemical
Procedure: The sialidase activity of DAS181 was measured using the fluorogenic substrate 4-methylumbelliferyl-N-acetyl-α-D-neuraminic acid (4-MU-NANA; Sigma). One unit of sialidase is defined as the amount of enzyme that releases 10 nmol of MU from 4-MU-NANA in 10 minutes at 37° C. (50 mM CH3COOH—NaOH buffer, pH 5.5) in a reaction that contains 20 nmol of 4-MU-NANA in a 0.2 ml volume (Potier et al., Anal. Biochem., 94:287-296, 1979). The specific activity of DAS181 was determined to be 1,300 U/mg protein (0.77 μg DAS181 protein per unit of activity).

B1: DAS181: fusion protein: heparin (GAG) binding domain of human amphiregulin fused to a catalytic domain of Actinomyces Viscosus sialidase (SEQ ID NO:17) (protein)
chain: MGDHPQATPAPAPDASTELPASMSQAQHLAANTATDNYRIPAITTAPNGDLLISYDERPKDNGNGGSDAPNPNHIVQRRSTDGGKTWSAPTYIHQGTETGKKVGYSDPSYVVDHQTGTIFNFHVKSYDQGWGGSRGGTDPENRGIIQAEVSTSTDNGWTWTHRTITADITKDKPWTARFAASGQGIQIQHGPHAGRLVQQYTIRTAGGAVQAVSVYSDDHGKTWQAGTPIGTGMDENKVVELSDGSLMLNSRASDGSGFRKVAHSTDGGQTWSEPVSDKNLPDSVDNAQIIRAFPNAAPDDPRAKVLLLSHSPNPRPWSRDRGTISMSCDDGASWTTSKVFHEPFVGYTTIAVQSDGSIGLLSEDAHNGADYGGIWYRNFTMNWLGEQCGQKPAKRKKKGGKNGKNRRNRKKKNP
modifications: DAS181
Microsphere Quality ([1]; 2 mM Na-Glutamate, 15% n-propanol, pH 4.0): 6/7
Microsphere Quality ([1]; 2 mM Na-citrate, 15% isopropanol, pH 4.0): 5/6
Microsphere Quality ([1]; 2 mM Na-citrate, 15% n-propanol, pH 5.0): 8/9
size of microspheres ([2]; 5 mg/ml or 10 mg/ml DAS181, 5 mM sodium citrate, 5% isopropanol): about 1.5 micron
appearance of dry pellet ([2]; cocktail 2): 10 mg/ml DAS181, 5 mM glycine pH 5.0, 10% isopropanol, gradual cooling): a mixture of glass-like crystals and agglomerates with only a few microspheres
appearance of dry pellet ([2]; cocktail 4) (5 mM sodium citrate, 10% isopropanol) snap-frozen in liquid nitrogen in a glass tube): glass-like crystals and no microspheres
appearance of dry pellet ([2]; cocktail 4) (5 mM sodium citrate, 10% isopropanol) snap-frozen in liquid nitrogen in a plastic tube): agglomerated microspheres
appearance of dry pellet ([2]; cocktails 1) and 3): 10 mg/ml DAS181, 5 mM glycine or 5 mM sodium citrate pH 5.0, no organic solvent): no microspheres were observed
appearance of microspheres (microscopy and cascade impaction) ([2]; continuous mode: 10 mg/ml DAS181, 20% isopropanol, 2 mM sodium sulfate, heat exchanger, cooled from about 25°C to about −12°C): uniform microspheres with minimal aggregation and good dispersivity
appearance after lyophilization ([2]; same cocktail not chilled, poured directly into liquid nitrogen): no microspheres were observed
specific activity of DAS181 ([3]; 4-MU-NANA, 37°C, pH 5.5, one unit releases 10 nmol MU in 10 minutes): 1,300 U/mg protein
DAS181 protein per unit of activity ([3]; same assay): 0.77 µg
